Experimental data as given in article PMC10897456, “B. subtilis MutS2 splits stalled ribosomes into subunits without mRNA cleavage” (The EMBO Journal, 2023).

Columns and labels:
Assay in all cases: cryo-EM structure; reconstituted complex: His-MutS2 WT in tenfold excess over purified B. subtilis disomes, 50 mM HEPES/KOH pH 7.5, 75 mM KOAc, 5 mM Mg(OAc)2, 45 mM NH4Cl, 4 mM MgCl2, 1 mM MnCl2, 1 mM AMP-PNP, 30 °C for 1 h; 3.8 Å
Details in all cases: both partners purified
ribosomal protein uS10 = ribosomal protein uS10 (B. subtilis (endogenous in B. subtilis …, UniProt P21471 1-102))
ribosomal protein uS11 = ribosomal protein uS11 (B. subtilis (endogenous in B. subtilis …, UniProt P04969 1-131))
ribosomal protein uS7 = ribosomal protein uS7 (B. subtilis (endogenous in B. subtilis …, UniProt P21469 1-156))

Measured: binding result

B1: His-MutS2 WT (recombinant B. subtilis MutS2) (natural protein)
chain: MQQKVLSALEFHKVKEQVIGHAASSLGKEMLLELKPSASIDEIKKQLDEVDEASDIIRLRGQAPFGGLVDIRGALRRAEIGSVLSPSEFTEISGLLYAVKQMKHFITQMAEDGVDIPLIHQHAEQLITLSDLERDINSCIDDHGEVLDHASETLRGIRTQLRTLESRVRDRLESMLRSSSASKMLSDTIVTIRNDRFVIPVKQEYRSSYGGIVHDTSSSGATLFIEPQAIVDMNNSLQQAKVKEKQEIERILRVLTEKTAEYTEELFLDLQVLQTLDFIFAKARYAKAVKATKPIMNDTGFIRLKKARHPLLPPDQVVANDIELGRDFSTIVITGPNTGGKTVTLKTLGLLTLMAQSGLHIPADEGSEAAVFEHVFADIGDEQSIEQSLSTFSSHMVNIVGILEQVNENSLVLFDELGAGTDPQEGAALAMSILDDVHRTNARVLATTHYPELKAYGYNREGVMNASVEFDIETLSPTYKLLIGVPGRSNAFEISKRLGLPDHIIGQAKSEMTAEHNEVDTMIASLEQSKKRAEEELSETESIRKEAEKLHKELQQQIIELNSKKDKMLEEAEQQAAEKVKAAMKEAEDIIHELRTIKEEHKSFKDHELINAKKRLEGAMPAFEKSKKPEKPKTQKRDFKPGDEVKVLTFGQKGTLLEKTGGNEWNVQIGILKMKVKEKDLEFIKSAPEPKKEKMITAVKGKDYHVSLELDLRGERYENALSRVEKYLDDAVLAGYPRVSIIHGKGTGALRKGVQDLLKNHRSVKSSRFGEAGEGGSGVTVVELK
notes: MutS2 of B. subtilis (87 kD); core/lever, clamp, P-loop ABC ATPase, KOW and SMR domains; SMR domain printed as residues 710-785; SEC: oligomer, consistent with a dimer or tetramer; the text calls it a homodimer on the disome; Only the KOW and SMR domains are resolved in the structure (AlphaFold2 models fitted as rigid bodies); also called RqcU; source: E. coli BL21(DE3), pET24d(+), purified …
binds: all assays above
